# According to the nanobody polyreactivity screen of Harvey et al. (2022):
# Assay: yeast display, Sf9 membrane polyspecificity reagent, FACS + sequencing; frameworks hold sequencing errors
# Outline: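 A synthetic nanobody library was expressed on Saccharomyces cerevisiae BJ5465 by galactose induction for 36–48 hours. The library was stained for 1 hour at 4 °C with 10% biotinylated, detergent-solubilized Sf9 membrane reagent and enriched with streptavidin microbeads before FACS. Low and high (top ~1%) gates were set on anti-HA fluorescence for expression and streptavidin fluorescence for reagent binding, and each polyreactivity label reflects the gate of origin.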
row,Sequence,polyreactivity (PSR sort gate)
1,QVQLVESGGGLVQAGGSLRLSCAASGSIFGRYAMGWYRQAPGKERELVAAITGSGGTTYYADSVKGRFTISRDNAKNTVYLQMNSLKPEDTAVYYCAADPQVYYSGRPRYDYWGQGTQVTVSS,high polyreactivity
2,QVQLVESGGALVQAGGSLGLICAASGSIFRWYAMGWYRQAPGKERELVASINSSGDRTYYADSVKGRFTISRDKAKKTVFLQMNSLNPEDTAVYNCAAQISVKVDFWGQGTQVTVSS,high polyreactivity
3,QVQLVESGGGIVQAGGSLRLSCAASGLNFGLYAMGWDRQAPGNERELVAAITWSGVSTSYADSVKGRFTISRDNAKNTVYLQMNSLKPEDTAVYYCNKDPGTLYGDMDSWGQGTQVTVSS,low polyreactivity
4,QVQLVESAGGLVQAGGSLRLICAASGSIFDLYAMGWYRQAPGTERELVAASTWSGGSTYYADSVKGRFTISRDNAKNTVYLQMNSLKPEDTAVYYCAAAYVGTQDLVIDYDYWGQGTQVTVSS,low polyreactivity
5,QVQLVESGGGLVQAGGSLRLSCAASGSISGYYARGWYRQAPGKERELVASIRYTGARTYYADSVKGRFTISRDNAKYTVYVQMNSLKPEDTAVYYCAATEFTYYYSYDYWGQGTLVTVSS,low polyreactivity
6,QVQLVESGGGLVQAGGSLRLSCAASGVIFDFNAMGWYRQAPGKERELAASISRSGGSTYYADSVKGRFTISRDNAKNTVYLQMNSLKPEDTAVYYCAKASKGQYRFDYWGQGTQVTVSS,low polyreactivity
7,QVQLVESGGGLVQAGGSLRLSCAASGIIFSIYAMGLYRQAPGKERELVAVISRSSGSTYYADSVKGRFTISRYNAKNTVYLQMNSLKPEDTAVYYCAARKNRAYGYWGQGTQVTVSS,high polyreactivity
8,QVQLVESGGGLVQAVGSLRLSCAASGLIFFYYSMGWYRPAPGKERELVAAIRTNYADSVKGRFTISRDNAKNTVYLQMNSLKREDTAAYYCAAESSQTPTSAFDYWGQGTQVTVSS,low polyreactivity
9,QVQLVESGGGLVQAGGSLRFSCAASGFIFRYYAMGWYRQAPGKERELVAAIDYSGGSTIYADSVKGRFTISRDNAKNTVYLQMNSLKPEDTAVYYCNAEYTWHRGYDYWGQGTQVTVSS,low polyreactivity
10,QVQLVESGGGLVQAGGSLRLSCAASGFTFRGYAMGWYRQAPGKERELVAAISGSGGRTHYADSVKGRFTISRDNAKNTVYLQMNSLKPEDTAVYYCNAVPYSRPLGNNYWGQGTQVTVSS,high polyreactivity
11,QVQLHESGGGLVQAGGSLRLSCAASGTISQEDWMGWYRKAPRKEREFVAAIGLGSNTNYADSLKGRFTISRDNANNTVYLQMNSLKPEDTAVYYCAVSVWQYSDHVYRGQGTQVTVSS,low polyreactivity
12,QVPLVESGGVLVQAGGSLRLSFAASGRIYENAMGWYRQAPVNERELVAVISWSGGSKSYADSVKRRLTISRDNAMNTVYFQMNRLKPEDTAVYYCNAYRLLSRRYYYLGQGTQVTVSS,low polyreactivity
13,QVQLVESGGGLVQAGGSLRLSCAASGRTFGGYAMGWYRQAPGKETQLVATITSGGSTYYADSVKGRFTISRDNAKNTVYLQMTSLKPEDTAVYYCAADTYFETSTRAIPSNDYWGQGTQVTVSS,low polyreactivity
14,QVQLVESGGGLVQAGGSLRLSCAASGRTFWYYPMGGYRQEPGKERELVAAITRGTSTYADSVKGRFTISRDNAKTTVYLQMNSLKPEDTAVDYCAADTWGTRNSRYDYWGQGTQVTVSS,high polyreactivity
15,QVQLVESGGGLVQAGGSLRLSCAASGRIFQYYDMGWYRQAPGKERELVAAITFSGGSTYYADSVKGRFTISRDNAKNTVYLLMNSLKPEDTAVYYCARGYWVYYPDGDYWGQGTQVTVSS,low polyreactivity
16,QVQLVESVGGLVQAGGSLRLSCAASGRTFYYYTMGWYRQAPGKEWELVAAISSTGNTYYADSVKGRFTISRDNAKNTVYLHMISLQPEDTAVYYCAALGYVKLLAQAYEYWGHGTQVTVSS,high polyreactivity
17,QVQLVESGGGLVQAGGSLRLSCAASGSIFSSYAMGWYRQAPGKERELVAAITSGGSTYYADSVKGRFTISRDNAKNTVYLQMNSLKPEDTAVYYCAAYRSYFGYDYWGQGTQVTVSS,low polyreactivity
18,QVQLVESGGGLVQAGGSLRLSCAASGIIFVRNAMGWYRQAPGKERELVAAITWRGSTYYADSVKGRFTISRDNAKNTVYLQMNSLKPEDTAVYYCAAQWLYLEYDYWGQGTQVTVSS,high polyreactivity
19,QVQLVESGGGLVQAGGCLRLSCAASGSSFGYNGMGWYSQAPGKEREVVAAISSGGNTYYGDSVNGRFTISRDNAKNTVYLQMNSLKPEDTAVYYCNADYVASGYDFDEGYWGQGTQVTVST,low polyreactivity
20,QVQLVESGGGLVQAGGSLRLRCAASGRIFRLYAMGWYRQAPGKERELVAAIRSSGGSTYADSVKGRFTISRDNAKNTVYLHMNSLKPEDTAVYYCAARWGRLPEQYRYDYWGQGTQVTVSS,high polyreactivity
21,QVQLVESGGGLVQAGGSLRLSCAASGRTIYKYMGWDRQAPGKERELVAAIRWSGGSTYYADSVKGRFTISRDNAKNTVYLQMNSLKPEETAVYYCNVDSYGYKYDYWGQGTQVTVSS,low polyreactivity
22,QVQLVESGGGLVQAGGSLRLSCAASGRTFKYKAMGWYRQAPGKERELVDAISSDDSTNYADSVKGRFTISRDKAQNTVYLQMNSLKPEDTAVYYCAARYGYSKWPDRVQAYKHDYWGQGTQVTVSS,low polyreactivity

row,Sequence,polyreactivity (PSR sort gate)
1,QVQLVESVGGLVQAGGSLRLSCAASGSTFPFYAMGWYRQAPGKERELVAAITSGGSTYADSVKGRFTISRDNAKNTVYLQMNSLKPEDTAVYYCAASWPRWWRFGYWGQGTQVTVSS,low polyreactivity
2,QVQLVESGGGLVQAGGSLRLSCAASGSTFQSYTMGWYRQAPGKERELVAGISRSGGSTYYADSVKGRFTISRDNAKNTVYLQMNSLKPEDTAVYYCAAAFYGRWGGFDYWGQGTQVTVSS,high polyreactivity
3,QVQLVESGGGLVQAGGSLRLSCAASGSTFSRYAMGWYRQAPGKERELVAAIRRSAGSTYYADSVKGRFTISRDNAKNTVYLQMNSLKPEDTAVYYCAAAGRYDYWGQGTQVTVSS,high polyreactivity
4,QVQLVESGGGLVQAGGSLRLSCAASGFTFGSYAMGWYRQAPGKERELVAAITYRGGSTYYADSVKGRFTISRDNAKNTVYLQMNSLKPEDTAVYYCAADSRRKGNYWGQGTQVTVSS,high polyreactivity
5,QVQLVESGGGLVQAGGSLRLSCAASGSTFDFNAMGWYRQAPRKERELVASISWDTGGTYADSVKGRFTISRDNAKNSFYLQMNSLKTEDTAVYFCAARPDYFIFDYWGQGTQVTVSS,low polyreactivity
6,QVQLVESGGGLVQAGGSLSLSCAASGRIFTQYAMGWSRQAPGKERELVTAINASDGSTYADSVKGRFTISRDNAKNTVYLQMNCLIPEDTAVYYCNVTGGPYDFTRWSEFDHWGQGTQVTVSS,low polyreactivity
7,QVQLQESGGGLEQAGGSLRLSCAASGYISDIGTMGWYRQAPGKEREFVATIVVGSTTNYADSVKGRFTISRDNAKNTVYLQPQSGRYRGVLLRAWLLAVGKFTYWGQGTQETVSS,low polyreactivity
8,QVQLVESGGGLVQAGGSLRLTCAASGFTFFTYTMGWYRQPPGKERELVAAISRDGARTNYADSVKGRFTISRDNAKNTVYLQMNSLKPEDTAVYYCAAPTSHLYTEKYDYWGQGTQVTVSS,high polyreactivity
9,QVQLVESGGGLVQAGGSLRLSCAASGRILIVNTMGWYRQAPGKERELVAAISSGGTTYYADSVKGRFTISRDNAKNTVYLQMNSLKPEDTAVYYCAAKRAGAEYDYWGQGTQVTVSS,high polyreactivity
10,QVQLVESGRGLVQAGGSLRISCAPSGITFGRYVMGWYRQAPGKERELVAVISRGGSTNYADSVKGRFTIARDNAKNTDYLQMNSLKPEDSAVYYCAADEWIVHDGYYSSYYYWGQGTQVTVSS,low polyreactivity
11,QVQLVESGGGLVQAGGSLRLSCAASGFIFYYYAMGWYRQAPRKERELVAAISRSGGSTYYADSVKGRFTISRDNAKNTVYLQMNSLKPEDTAVYYCNTVPGTLYFRYDYWGQGTQVTVSS,high polyreactivity
12,QVQLVESGGGLGQAGGSLRLSCAASGSIFSSYAMGWYRQAPGKERELVAAISQSGGDTYYADSVKGRFTISRDNAKNTVYLQMNSLKPEDTAVYYSAASVWYYPMDYWGQGTQVTVSS,low polyreactivity
13,QVQLVESGGGLVQAGGSLRLSCAASGSTSRGYAMAWYRQAPGKERELFASITLSGGNTYYADSVKGRFTISRDNAKNTVYLQMNSLKPEDTAVYYCAADDRGSSYGHFTVEYGYWGQGTQVTVSS,low polyreactivity
14,QVQLVESGGGLVQAGGSLRLSCAASGSIFPLYAMGWYRQAPGKERELVAGINGNDGSTYYADSVKGRFTISRDYEKNTVYLQRNRLKPEDTAVYYCAARGSTAHPHYPFNYWGQGTQVTVSS,low polyreactivity
15,QVQLVESGGGLVQAVGSHRLSSAASGFIFDYNAMGWYRQEPVKVRELVAAISVSDDSTYYADSVKGRFTISRDNAKNTVYLQLNSLKPEVPAGYYCAAEWWDVIAPYDYWGLGTQVTVSS,low polyreactivity
16,QVQLVESGGGLVQAGGILRLSCAASGFIFWDYAMGWYRQAPGTERELVADISDSGGDTYYADSVKGRFTISRDNAKNTVYLQMNSLKPEDTAVYYCAADVELWVFRGQQYDYWGQVTQVTVSS,low polyreactivity
17,QVQLVESWGGLVQAGGSLRLSCAASGSTFRRNAMGCYRQAPGKERELVAAITRSGDSTYYADSVKGRFTISRDYAKNTVYLQMNSLKPEDTAVYYCAADSSRYRYRNQGYYWGQGTQVTVSS,high polyreactivity
18,QVQLVESGGGLVQAGGSLRLSCAASGRIFAFNAMGGYRQAPGKERELVAAITGRGGRTYYADSVKGRFTISRDHAKNTVYLQMNSLKPEDTAVYYCAAQRYINYDYWGQGTQVTVSS,high polyreactivity
19,QVQLVESGGGLVQAGGSLRLSCAASGLILNSYDMGWYRQAPGKERELVAAITRSGGNTFYADSVKGRFKISRDNAKNTVYLQMNSLNPEDTAVYYCNAYYTYWSQLYYWGQGTQVTVSS,high polyreactivity
20,QVQLVESGGGLVQAGGSLRLSCAASGNIIRKYAMGWYRPAPGKERELVAAITASGGRTFYADSVKGRFTISRDNAKNTVDLQMNSLKPEDTAVYYCATRDSPRTKNGYYYWGQGTQVTVSS,high polyreactivity
21,QVQLVESGGGLVQAGGSLRLSCAASGIIIRYYAMGWYRQAPGKERELVADITTGGTTYYADSVKGRFTISRDNAKNTVYLQMNCLKPEDTAVYYCAAYYFPTYSKTYIYPFDYWGQGTQVTVSS,low polyreactivity
